Test results as given in US20180339041A1 (Kyowa Kirin, published 2018).

B1: anti-human Gas6 mouse monoclonal antibody KM5321 (KM5321-mKG1 antibody) (antibody, V domains shown)
VH: QIQLVQSGPELKKPGETVKISCRASGYTFTNYGMNWVKQAPGKGLKWMGWINTNTGEPTYTEEFKGRFAFSLETSATTAYLQINDLKNEDTATYFCARDEGWFVYWGQGTLITVSA
VL: ETTVTQSPASLSVATGEKVTIRCITSTDIDDDMNWYQQKPGEPPKLLISEGNTLRPGVPSRFSSSGYGTDFVFTIENTLSEDVADYYCLQTDSVPLTFGAGTKLELK
notes: Hybridoma-derived mouse IgG1, kappa; also called KM5321 antibody
B2: anti-human Gas6 mouse monoclonal antibody KM5320 (KM5320-mKG1 antibody) (antibody, V domains shown)
VH: QIQLVQSGPELKKPGETVKISCKASGYTFTNYGMNWVKQAPGKGLKWMGWINTETGEPTYSDDFKGRFAFSLETSATTAYLQINNLRNEDMATYFCAREDGYYGTLDYWGQGTSVTVSS
VL: SIVMTQTPKFLLVSAGDRVTITCKASQSVSNDVAWYQQKPGQSPKVLIYYASNRYTGVPDRFTGSGYGTDFTFTISTVQAEDLAVYFCQQDYSSPWTFGGGTKLEIK
notes: Hybridoma-derived mouse IgG1, kappa; also called KM5320 antibody

Legend:
[1] = target: T1, C-terminally FLAG-tagged human Gas6 recombinant protein (hGas6-F) (human, UniProt Q14393 31-678, gamma-carboxylated glutamic acid residues in the Gla domain (producer cells co-express rat VKOR and human GGCX); positions not given); experiment: competitive ELISA, hAxl-hFc immobilised, 50 ng/mL hGas6-F
T1 construct: also called human Gas6-F; human Gas6 protein
T1 sequence: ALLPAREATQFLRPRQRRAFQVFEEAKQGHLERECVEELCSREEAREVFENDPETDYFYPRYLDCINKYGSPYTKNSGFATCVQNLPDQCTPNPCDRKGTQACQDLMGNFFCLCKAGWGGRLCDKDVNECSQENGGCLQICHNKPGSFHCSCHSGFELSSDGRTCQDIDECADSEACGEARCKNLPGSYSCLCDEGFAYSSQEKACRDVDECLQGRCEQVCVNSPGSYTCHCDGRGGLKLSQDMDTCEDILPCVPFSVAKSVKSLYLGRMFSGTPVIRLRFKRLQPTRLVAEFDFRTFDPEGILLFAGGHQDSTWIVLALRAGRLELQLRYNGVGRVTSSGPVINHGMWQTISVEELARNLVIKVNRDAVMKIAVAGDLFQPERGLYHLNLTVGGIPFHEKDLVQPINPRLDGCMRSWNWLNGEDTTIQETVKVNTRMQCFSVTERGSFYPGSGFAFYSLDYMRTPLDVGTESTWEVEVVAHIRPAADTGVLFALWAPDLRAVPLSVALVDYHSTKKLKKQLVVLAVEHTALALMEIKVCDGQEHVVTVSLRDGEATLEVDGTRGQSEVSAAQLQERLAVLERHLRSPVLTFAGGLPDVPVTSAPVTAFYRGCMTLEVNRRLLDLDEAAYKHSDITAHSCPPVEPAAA

[2] = target: T2, human protein S (derived from human serum; Enzyme Research Laboratories) (human, UniProt P07225 42-676); experiment: ELISA: human protein S coated directly on the plate (2 µg/mL); biotinylated test antibody; streptavidin-HRP/TMB (Example 6, method of Example 5(5)) [F]
T2 construct: Homologue of Gas6 used as specificity control
T2 sequence (looked up): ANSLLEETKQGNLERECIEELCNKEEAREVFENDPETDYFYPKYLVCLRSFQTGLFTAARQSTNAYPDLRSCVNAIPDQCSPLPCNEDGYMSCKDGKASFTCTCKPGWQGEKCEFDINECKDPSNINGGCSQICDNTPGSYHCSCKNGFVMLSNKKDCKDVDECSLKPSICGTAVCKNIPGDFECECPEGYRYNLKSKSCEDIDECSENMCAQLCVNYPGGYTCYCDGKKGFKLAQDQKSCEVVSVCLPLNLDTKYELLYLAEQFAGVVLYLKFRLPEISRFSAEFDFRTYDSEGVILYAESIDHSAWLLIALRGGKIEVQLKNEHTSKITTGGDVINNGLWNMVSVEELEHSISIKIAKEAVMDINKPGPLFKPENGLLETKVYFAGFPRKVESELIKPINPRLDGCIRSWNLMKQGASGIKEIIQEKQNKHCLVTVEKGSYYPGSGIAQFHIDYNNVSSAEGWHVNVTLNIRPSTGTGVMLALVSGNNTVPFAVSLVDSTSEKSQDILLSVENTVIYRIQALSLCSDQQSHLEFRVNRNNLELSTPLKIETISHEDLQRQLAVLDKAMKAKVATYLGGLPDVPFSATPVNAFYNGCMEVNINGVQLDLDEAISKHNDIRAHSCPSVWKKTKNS
Procedure: First, a 2 μg/mL solution of the antigen (prepared from each antigen with PBS (manufactured by Nacalai Tesque, Inc.)) was dispensed at 50 μL/well to a 96-well plate for ELISA (manufactured by Nalge Nunc International), and the plate was left standing overnight at 4° C. for adsorption. The plate was washed five times with Tween 20-PBS. Then, 1% BSA-PBS (manufactured by Nacalai Tesque, Inc.) was added thereto at 300 μL/well, and the plate was left standing at room temperature for 1 hour for blocking and washed five times with Tween 20-PBS (manufactured by Wako Pure Chemical Industries Ltd.). Next, the hybridoma culture supernatant was dispensed thereto as a test substance at 50 μL/well, and the plate was left standing at room temperature for 1 hour and then washed five times with Tween 20-PBS. Next, polyclonal goat anti-mouse immunoglobulins/HRP (Dako Denmark A/S, P0447) diluted 2000-fold with 1% BSA-PBS was dispensed thereto at 50 μL/well, and the plate was left standing at room temperature for 1 hour. The plate was washed five times with Tween 20-PBS, and TMB (manufactured by Sigma-Aldrich Co. LLC) was added thereto at 50 μL/well and reacted. At an appropriate point in time, the reaction was terminated by the addition of 1 N hydrochloric acid (manufactured by Wako Pure Chemical Industries Ltd.) at 50 μL/well. The absorbance at a sample wavelength of 450 nm and a reference wavelength of 570 nm (450 nm-570 nm) was measured using a plate reader (Spectra Max, manufactured by Molecular Devices, LLC).
The binding activity of the obtained antibodies against human protein S was measured in the same way as in Example 5(5). […] The secondary detection reagent used was Streptavidin HRP Conjugate (manufactured by R&D Systems, Inc.) diluted 200-fold with 1% BSA-PBS.

Binder | antibody:Gas6 molar concentration ratio at complete inhibition [1] | binding result [2]
B1 | 0.5 antibody:Gas6 molar ratio | no binding (tested: 5 µg/mL)
B2 | 2 antibody:Gas6 molar ratio | no binding (tested: 5 µg/mL)
